From paper PMC5913134, “The IL-33-PIN1-IRAK-M axis is critical for type 2 immunity in IL-33-induced allergic airway inflammation” (Nature Communications, 2018) come the findings set out here.

The test deals with mouse embryonic fibroblasts (MEFs). The test is described as follows: IL-6 secretion by MEFs. The format is cell-based. The settings on record: PIN1 KO MEFs, all IL-33 concentrations tested, 24 h. On the procedure: Fig. 1 PIN1 is required for IL-33 to induces TH2 polarization and allergic inflammation. a 5 and15 min after IL-33 treatment of DC2.4 cells, cells were extracted and PIN1 activity was measured as previously described. Inset: PIN1 was immune precipitated and immune blotted for PIN1 or Ser71 phosphorylation as indicated. b WT and PIN1 KO MEF’s were treated with different concentrations of IL-33 for 24 h and the medium was measured for IL-6 secretion. c WT and PIN1 KO mice were treated with 200 ng/mice/day for 4 consecutive days and the BALF was examined for IL-4, 5, 6 and 13 by ELISA. d H&E staining representative of lungs from WT and PIN1 KO mice treated with IL-33 (n = 4). Scale bar = 50 µm. e Total cell number in the BALF of WT and PIN1 KO mice was measured using HEMAVET multispecies hematology analyzer. f Eosinophil cell number in the BALF of WT and PIN1 KO mice was measured using HEMAVET multispecies hematology analyzer. g Representative H&E staining of lung sections from WT and PIN1 KO mice after OVA-induced allergic asthma (n = 4). Scale bar = 50 µm. h IL-4, -5, -13 and IL-33 levels in the BALF of WT and PIN1 KO mice after OVA-induced allergic asthma. […] The data were analyzed by a Student’s two-tailed t test unless stated otherwise, and the values are reported as mean ± standard errors of the means (SEM). *- statistical significance (P < 0.05), **- significance (P < 0.01)

B1: IL-33: Recombinant mouse IL-33 purchased from BioLegend (protein, UniProt Q8BVZ5 1-266, looked up)
Interleukin-33: MRPRMKYSNSKISPAKFSSTAGEALVPPCKIRRSQQKTKEFCHVYCMRLRSGLTIRKETSYFRKEPTKRYSLKSGTKHEENFSAYPRDSRKRSLLGSIQAFAASVDTLSIQGTSLLTQSPASLSTYNDQSVSFVLENGCYVINVDDSGKDQEQDQVLLRYYESPCPASQSGDGVDGKKLMVNMSPIKDTDIWLHANDKDYSVELQRGDVSPPEQAFFVLHKKSSDFVSFECKNLPGTYIGVKDNQLALVEEKDESCNNIMFKLSKI
Regarding B1, the “IL-6 secretion in response to IL-33” value is given as “abolished IL-6 secretion”.
